Assay results: paper PMC9813972

Molecular target: AbTFM (A. baumannii tautomerase family member) (Acinetobacter baumannii)
Assay: crystal structure; sitting-drop crystals at 296 K from 0.2 M ammonium nitrate, PEG 3350; protein in 20 mM HEPES-NaOH pH 6.8, 150 mM NaCl; space group H3, one subunit in the asymmetric unit, trimer by the crystallographic threefold axis

For “AbTFM (A. baumannii tautomerase family member) (natural protein)”, the stoichiometry N was 3.
